# Data reported in US20210284724A1 (I MAB BIOPHARMA US, published 2021).
# Positions count from the first letter of the chain named.
# B1: 71F4-B-A (antibody, V domains shown)
# VH: EVQLVESGGGLVQPGGSLRLSCAASGIDFSRYWMSWVRQAPGKGLEWVAEINPEASTINYAPSLKDRFTISRDNAKNSLYLQMNSLRAEDTAVYYCARQDDYEYYTMDYWGQGTTVTVSS
# VL: DIQMTQSPSSLSASVGDRVTITCKVSQDVNTGVAWYQQKPGKAPKLLIYSASYRYTGVPSRFSGSGSGTDFTFTISSLQPEDIATYYCQQYYSTPLTFGGGTKLEIK
# B2: 71F4-B-AS (antibody, V domains shown)
# VH: B1 VH with T57S
# VL: B1 VL
# B3: 71F4-B-ASH (antibody, V domains shown)
# VH: B1 VH with T57S, E103S, Y104H
# VL: B1 VL
# B4: 71F4-B-H (antibody, V domains shown)
# VH: B1 VH with A55S, Y104H
# VL: B1 VL
# notes: also called 71F4A3-B-H
# B5: 71F4-B-L (antibody, V domains shown)
# VH: B1 VH with A55S, E103L
# VL: B1 VL
# B6: 71F4-B-LT (antibody, V domains shown)
# VH: B1 VH with A55S, E103L, Y104T
# VL: B1 VL
# notes: also called 71F4A3-B-LT
# B7: 71F4-B-S1 (antibody, V domains shown)
# VH: B1 VH with A55S, T57S
# VL: B1 VL
# B8: 71F4-B-S2 (antibody, V domains shown)
# VH: B1 VH with A55S, E103S
# VL: B1 VL
# B9: 71F4-B-SH (antibody, V domains shown)
# VH: B1 VH with A55S, E103S, Y104H
# VL: B1 VL
# B10: 71F4-B-SSH (antibody, V domains shown)
# VH: B1 VH with A55S, T57S, E103S, Y104H
# VL: B1 VL
# B11: 71F4-B-T (antibody, V domains shown)
# VH: B1 VH with A55S, Y104T
# VL: B1 VL
# notes: also called 71F4A3-B-T
# B12: 329F2E1 chimeric Fab (Fab, V domains shown)
# VH: EVKLLQSGGGLVQPGGSLKLSCAASGIDFSRYWMSWVRRAPGKGLEWIGEINPDSSTINYAPSLKDKFIISRDNAKNTLYLQMSKVRSEDTALYYCARQDDYDYYAMDYWGQGTSVTVSS
# VL: DIVMTQSHKFMSTSVGDRVSITCKASQDVSTGVAWYQQKPGQSPKLLIYSASYRYTGVPDRFTGSGSRTDFTFTISSVQTEDPAVYYCHQYYTIPLTFGAGTELELK
# notes: Fab
# B13: 415A3D1 chimeric Fab (Fab, V domains shown)
# VH: EVKLLESGGGLVQAGGSMRLSCGAFGFTVTDFYINWIRQPAGKAPEWLGFMRNKANGYTTEYNPSVKGRFTISRNNTQNMPYLQMNTLRTEDTAIYYCARSRYNADDYYVGVMDVWGQGASVTVSS
# VL: DIQMTQFPASLSASLGETVSIECLASEDIYNNLAWYQQKPGKSPQLLIYYTNSLQDGVPSRFSGTGSGTQYSLKINSLESEDAATYFCLQDSEYPWTFGGGTKLKLK
# notes: Fab; label read as clone 415A3D1F4
# B14: 178E2B3 (antibody, V domains shown)
# VH: QVQLQQSGAELVRPGTSVKVSCKASGYAFTNHLIEWVKQRPGQGLEWIGVINPGSGGTKYNEKFKGKATVTADKSSSTVYMQLNSLTSEDSAVYFCARSSDGYYEEDYFDYWGQGTTLTVSS
# VL: QIVLTQSPAIMSASPGEKVTMTCSASSSVNYMQWYQQKSGTSPKRWIYDTSELASGVPDRFSGSGSGTSYSLTISSMEAEDVATYYCQQWSSDPITFGAGTKLELK
# notes: Hybridoma mAb
# B15: 181B11G12 (antibody, V domains shown)
# VH: EVKLVESEGGLVQPGSSMKLSCTASGFTFSDYYMAWVRQVPEKGLEWVANINYDGSDTYYLDSLKSRFIISRDNAKNILYLQMSSLKSEDTATYYCVRDVAYDDSYAMDYWGQGTSVTVSS
# VL: DIQMTQSPSSLSASLGGKVTITCKASQDINKYIAWYQHKPGKGPRLLIHYTSTLQPGIPSRFSGSGSGRDYSFSISNLEPEDIATYYCLQYDSLYTFGGGTKLEIK
# notes: Hybridoma mAb
# B16: 345G1B4 (antibody, V domains shown)
# VH: QVTLKESGPGILQPSQTLSLTCSFSGFSLSTSNMGVGWIRQPSGKGLEWLAHIWWDDVKRYNPALKSRLTISKDTSSSQVFLKIASVDTADTATYYCARSTTLVAFDYWGQGTTLTVSS
# VL: DIVMTQSPSSLTVTAGEKVTMSCKSSQSLLNSGNQKNYLTWYQQKPGQPPKLLIYWASTRESGVPDRFTGSGSGTDFTLTISSVQAEDLAVYYCQNDYSYPTFGGGTKLEIK
# notes: Hybridoma mAb
# B17: 396A5A1 (antibody, V domains shown)
# VH: B16 VH with N33G, V36I, V58I, I71V, S77T, K83N, T92I, Y96F, L103V
# VL: B16 VL with V3L, S71T, V91I, S99D
# notes: Hybridoma mAb
# B18: 409G9C2 (antibody, V domains shown)
# VH: EVQLQQSGPGLVKPSGTLSLTCAVSGGSITSSYWWTWVRQPPGKGLEWIGEIYHSGRPNYNPSLKSRATISVDKSRNQFSLNLTSVTAADTAVYYCAKTAAVSYWYFDLWGRGTLVTVSS
# VL: DIKMNQSPSSMSASLGDRVTITCQASQDIGNDLIWFQQKPGKSPRPLIYYASNLANGVPSRFSGRRSESNYSLTISSLESEDMADYHCLQFKQYPFTFGAGTKLELK
# notes: Hybridoma mAb
# B19: 410A4D10 (antibody, V domains shown)
# VH: EVQLQQSGPGLVRPSGTLSLTCAVSGGSISSRNWWGWVRQPPGKGLEWIGEIYHSGGTNYNPSLKSRVTISVDKSKNQFSLKLSSVTAADTAVYYCAREFGDSVWYFDLWGRGTLVTVSS
# VL: B18 VL with K3V, M4I, N5T, I34V, S52T, N56D, N70K, S77N, F96Y
# notes: Hybridoma mAb
# Columns and labels:
# [1] = target: T1, human CXCL13 (human, UniProt O43927 23-109); assay: SPR Biacore T200
# T1 construct: also called huCXCL13; rhCXCL13
# T1 sequence (looked up): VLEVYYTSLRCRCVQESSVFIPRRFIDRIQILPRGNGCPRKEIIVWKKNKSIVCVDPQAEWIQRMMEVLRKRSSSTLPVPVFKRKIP
# Method: To further optimization of 71F4-B, each Mutations in 71F4A3 useful for improving binding (Kon) were added into 71F4-B, the sequences were listed in Table 28. Antibodies according to these sequences were generated and affinity testing was performed by Biacore T200.
# [2] = target: T1, human CXCL13; assay: SPR Biacore 8K, Fab over immobilised CXCL13
# Method: HuCXCL13 binding affinity by Surface Plasmon Resonance. 411A11E9, 415A3D1, 64C10G1, 21H12D9, 329F2E1, 71F4A3 were selected to produce Fab and tested binding affinity. The binding of the antibodies to huCXCL13 was examined by Biacore 8K. 10 mM HEPES, 150 mM NaCl, 3 mM EDTA, 0.05% Tween-20, pH 7.4 served as running buffer and 10 mM glycine-HCl, pH2.0 served as regeneration buffer. CXCL13 protein was immobilized on Sensor Chip CM5 using amine coupling method (immobilization level ˜30RU). The serial concentrations of Fab (0-16 nM) were injected over immobilized CXCL13 at the flow rate of 30 μl/min. The dissociation phases were 600s.
# [3] = target: T1, human CXCL13; assay: cell-based blocking ELISA, CXCL13 to CHO-K1-CXCR5
# In short: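 Hybridoma supernatants or purified antibodies were preincubated 30 min at RT with human CXCL13 (0.3 μg/ml, before mixing), then added 30 min to PFA-fixed CHO-K1-CXCR5 cells. Bound CXCL13 was detected with Mab5261 plus anti-human Fc-HRP, read at 450 nm.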
# [4] = target: T2, mouse CXCL13 (mouse, UniProt O55038 22-109); assay: ELISA, coated antigen
# T2 construct: also called rmCXCL13
# T2 sequence (looked up): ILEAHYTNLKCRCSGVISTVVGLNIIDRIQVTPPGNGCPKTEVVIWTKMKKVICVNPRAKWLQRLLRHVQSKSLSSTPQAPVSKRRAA
# [5] = target: T1, human CXCL13; assay: ELISA, coated antigen
# [6] = target: T3, cynomolgus CXCL13 (cynomolgus, UniProt H6WS58 23-109); assay: ELISA, coated antigen
# T3 construct: also called cynoCXCL13; Cyno CXCL13
# T3 sequence: T1 sequence (looked up) with S8H, L32S, I52V, M65I, V68M, R72K, L77P
Binder,Kd [1] [nM],koff [1] [s⁻¹],kon [1] [M⁻¹ s⁻¹],IC50 [3] [µg/mL],EC50 [5] [µg/mL],binding result [6],further results
B1,0.388,6.82e-05,176000,,,,
B2,0.321,7.25e-05,226000,,,,
B3,0.521,9.17e-05,176000,,,,
B4,0.0647,1.27e-05,197000,,,,
B5,0.443,8.58e-05,194000,,,,
B6,0.0435,1.02e-05,235000,,,,
B7,0.404,9.26e-05,229000,,,,
B8,0.52,0.000268,515000,,,,
B9,0.29,5.55e-05,192000,,,,
B10,0.377,9.46e-05,251000,,,,
B11,0.0456,1.17e-05,256000,,,,
B12,,,,,,,Kd [2]: 0.602 nM; koff [2]: 0.000581 s⁻¹; kon [2]: 966000 M⁻¹ s⁻¹
B13,,,,,,,Kd [2]: 1.2 nM; koff [2]: 0.00306 s⁻¹; kon [2]: 2.56e+06 M⁻¹ s⁻¹
B14,,,,0.974,0.0153,no binding,binding result [4]: no binding
B15,,,,0.703,0.0223,no binding,binding result [4]: no binding
B16,,,,3.24,0.0138,no binding,binding result [4]: no binding
B17,,,,1,0.0135,no binding,binding result [4]: no binding
B18,,,,11.7,2.27,no binding,EC50 [4]: 0.538 µg/mL
B19,,,,8.38,2.14,no binding,EC50 [4]: 0.761 µg/mL
